Experimental data published in IntAct's records for PubMed 21984795.

B1: Biopolymer transport protein ExbD (Escherichia coli (strain K12)), P0ABV2 (parent)
chain: MAMHLNENLDDNGEMHDINVTPFIDVMLVLLIIFMVAAPLATVDVKVNLPASTSTPQPRPEKPVYLSVKADNSMFIGNDPVTDETMITALNALTEGKKDTTIFFRADKTVDYETLMKVMDTLHQAGYLKIGLVGEETAKAK
B2: Biopolymer transport protein ExbD (Escherichia coli (strain K12)), P0ABV2 (parent)
chain: B1 chain
partner: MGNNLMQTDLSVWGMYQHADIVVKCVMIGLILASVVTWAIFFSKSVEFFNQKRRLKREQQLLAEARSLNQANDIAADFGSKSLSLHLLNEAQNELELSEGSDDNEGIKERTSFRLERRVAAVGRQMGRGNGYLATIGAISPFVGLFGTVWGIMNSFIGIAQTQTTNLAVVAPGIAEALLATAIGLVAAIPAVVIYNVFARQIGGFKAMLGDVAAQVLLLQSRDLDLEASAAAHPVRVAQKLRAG

Variants of: B1
Conditions: with tonb_ecoli tonB

Row | Variant | effect of a mutation on the interaction
1 | MAMHLNENLDDNGEMHDINVTPFIDVMLVLLIIFMVAAPLATVDVKVNLPASTSTPQPRPEKPVYLSVKADNSMFIGNDPVTDETMITALNALTEGKKDTTIFFRADCTVDYETLMKVMDTLHQAGYLKIGLVGEETAKAK | increasing interaction
2 | MAMHLNENLDDNGEMHDINVTPFIDVMLVLLIIFMVAAPLATVDVKVNLPASTSTPQPRPEKPVYLSVKADNSMFIGNDPVTDETMITALNALTEGKKDTTIFFRACKTVDYETLMKVMDTLHQAGYLKIGLVGEETAKAK | increasing interaction
3 | MAMHLNENLDDNGEMHDINVTPFIDVMLVLLIIFMVAAPLATVDVKVNLPASTSTPQPRPEKPVYLSVKADNSMFIGNDPVTDETMITALNALTEGKKDTTIFFRADKTVDCETLMKVMDTLHQAGYLKIGLVGEETAKAK | increasing interaction
4 | MAMHLNENLDDNGEMHDINVTPFIDVMLVLLIIFMVAAPLATVDVKVNLPASTSTPQPRPEKPVYLSVKADNSMFIGNDPVTDETMITALNALTEGKKDTTIFFRADKTVCYETLMKVMDTLHQAGYLKIGLVGEETAKAK | increasing interaction
5 | MAMHLNENLDDNGEMHDINVTPFIDVMLVLLIIFMVAAPLATVDVKVNLPASTSTPQPRPEKPVYLSVKADNSMFIGNDPVTDETMITALNALTECKKDTTIFFRADKTVDYETLMKVMDTLHQAGYLKIGLVGEETAKAK | increasing interaction
6 | MAMHLNENLDDNGEMHDINVTPFIDVMLVLLIIFMVAAPLATVDVKVNLPASTSTPQPRPEKPVYLSVKADNSMFIGNDPVTDETMITALNALTEGKKDTTCFFRADKTVDYETLMKVMDTLHQAGYLKIGLVGEETAKAK | increasing interaction
7 | MAMHLNENLDDNGEMHDINVTPFIDVMLVLLIIFMVAAPLATVDVKVNLPASTSTPQPRPEKPVYLSVKADNSMFIGNDPVTDETMITALNALTEGKKDTTIFFRADKTCDYETLMKVMDTLHQAGYLKIGLVGEETAKAK | increasing interaction
8 | MAMHLNENLDDNGEMHDINVTPFIDVMLVLLIIFMVAAPLATVDVKVNLPASTSTPQPRPEKPVYLSVKADNSMFIGNDPVTDETMITALNALTEGKKDTTIFFRADKCVDYETLMKVMDTLHQAGYLKIGLVGEETAKAK | increasing interaction
9 | MAMHLNENLDDNGEMHDINVTPFIDVMLVLLIIFMVAAPLATVDVKVNLPASTSTPQPRPEKPVYLSVKADNSMFIGNDPVTDETMITALNCLTEGKKDTTIFFRADKTVDYETLMKVMDTLHQAGYLKIGLVGEETAKAK | increasing interaction

Results, then the variant that gave them:

Row | effect of a mutation on the interaction | Variant
10 | increasing interaction | MAMHLNENLDDNGEMHDINVTPFIDVMLVLLIIFMVAAPLATVDVKVNLPASTSTPQPRPEKPVYLSVKADNSMFIGNDPVTDETMITALNALTEGKKDTTIFFRADKTVDYETLCKVMDTLHQAGYLKIGLVGEETAKAK
11 | increasing interaction | MAMHLNENLDDNGEMHDINVTPFIDVMLVLLIIFMVAAPLATVDVKVNLPASTSTPQPRPEKPVYLSVKADNSMFIGNDPVTDETMITALNALTEGKKDTTIFFRADKTVDYETLMKVMCTLHQAGYLKIGLVGEETAKAK
12 | increasing interaction | MAMHLNENLDDNGEMHDINVTPFIDVMLVLLIIFMVAAPLATVDVKVNLPASTSTPQPRPEKPVYLSVKADNSMFIGNDPVTDETMITALNALTEGKKDTTIFFRADKTVDYCTLMKVMDTLHQAGYLKIGLVGEETAKAK

Variants of: B2
Conditions: with exbb_ecoli exbB

Row | Variant | effect of a mutation on the interaction
13 | MAMHLNENLDDNGEMHDINVTPFINVMLVLLIIFMVAAPLATVDVKVNLPASTSTPQPRPEKPVYLSVKADNSMFIGNDPVTDETMITALNALTEGKKDTTIFFRADKTVDYETLMKVMDTLHQAGYLKIGLVGEETAKAK | disrupting interaction
14 | MAMHLNENLDDNGEMHDINVTPFIDVMLVLLIIFMVAAPLATVDVKVNLPASTSTPQPRPEKPVYLSVKADNSMFIGNDPVTDETMITALNALTEGKKDTTIFFRADCTVDYETLMKVMDTLHQAGYLKIGLVGEETAKAK | increasing interaction

The next lines start with the values.

Row | effect of a mutation on the interaction | Variant
15 | increasing interaction | MAMHLNENLDDNGEMHDINVTPFIDVMLVLLIIFMVAAPLATVDVKVNLPASTSTPQPRPEKPVYLSVKADNSMFIGNDPVTDETMITALNALTEGKKDTTIFFRADKTVDYETLCKVMDTLHQAGYLKIGLVGEETAKAK
16 | increasing interaction | MAMHLNENLDDNGEMHDINVTPFIDVMLVLLIIFMVAAPLATVDVKVNLPASTSTPQPRPEKPVYLSVKADNSMFIGNDPVTDETMITALNALTEGKKDTTIFFRADKTVDYCTLMKVMDTLHQAGYLKIGLVGEETAKAK
17 | increasing interaction | MAMHLNENLDDNGEMHDINVTPFIDVMLVLLIIFMVAAPLATVDVKVNLPASTSTPQPRPEKPVYLSVKADNSMFIGNDPVTDETMITALNALTEGKKDTTIFFRADKTVDCETLMKVMDTLHQAGYLKIGLVGEETAKAK
